# From PMC5095703 (Biochemistry, 2016)
# Legend:
# FdhC-C-term tag = FdhC-C-term tag (Acinetobacter nosocomialis, UniProt V5RDR9); test: X-ray crystal structure, […] Å; format: binding; details: ternary complex with dTDP-Fuc3N(R3Hb) (also with dTDP-Qui3N(R3Hb)), pH 5.0
# [1] = test system: CC(=O)SCCNC(=O)CCNC(=O)[C@H](O)C(C)(C)COP(=O)(O)OP(=O)(O)OC[C@H]1O[C@@H](n2cnc3c(N)ncnc32)[C@H](O)[C@@H]1OP(=O)(O)O; test: purified protein; details: 5 mM dTDP-Fuc3N, 50 mM HEPES pH 7.5, 5 mM DTNB
# [2] = test system: Cc1cn([C@H]2C[C@H](O)[C@@H](COP(=O)(O)OP(=O)(O)O[C@H]3O[C@H](C)[C@@H](O)[C@H](N)[C@H]3O)O2)c(=O)[nH]c1=O; test: purified protein; details: 1 mM 3-hydroxybutanoyl-CoA, 50 mM HEPES pH 7.5, 5 mM DTNB
# [3] = test system: Cc1cn([C@H]2C[C@H](O)[C@@H](COP(=O)(O)OP(=O)(O)O[C@H]3O[C@H](C)[C@H](O)[C@H](N)[C@H]3O)O2)c(=O)[nH]c1=O; test: purified protein; details: 1 mM 3-hydroxybutanoyl-CoA, 50 mM HEPES pH 7.5, 5 mM DTNB
Molecule,"X-ray crystal structure, 1.8 Å (FdhC-C-term tag)",Km [1] [µM],kcat [1] [s⁻¹],kcat/Km [1] [M⁻¹ s⁻¹],Km [2] [µM],kcat [2] [s⁻¹],kcat/Km [2] [M⁻¹ s⁻¹],Km [3] [µM],kcat [3] [s⁻¹],kcat/Km [3] [M⁻¹ s⁻¹]
CC(C)(COP(=O)(O)OP(=O)(O)OC[C@H]1O[C@@H](n2cnc3c(N)ncnc32)[C@H](O)[C@@H]1OP(=O)(O)O)[C@@H](O)C(=O)NCCC(=O)NCCS [CoA],the observed electron density for the CoA and the dTDP-Fuc3N(R3Hb) ligands,–,–,–,–,–,–,–,–,–
FdhC (Acinetobacter nosocomialis),–,40 ± 10,0.0034 ± 0.0002,85,5300 ± 800,24.7 ± 1.7,4700,650 ± 70,52.7 ± 2.1,81000
FdhC-C-term tag (Acinetobacter nosocomialis),–,–,–,–,–,–,–,1500 ± 200,38.3 ± 1.9,26000
